Test results reported in patent US20200010567A1 (NEURIMMUNE, published 2020).

T1: (GP)15: H-C(GP)15-OH
T1 construct: synthetic, not coupled to BSA; also called poly-GP DPR protein peptide
T1 peptide: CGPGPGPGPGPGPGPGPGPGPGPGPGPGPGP

T2: GP6: H-(GP)6HHHHHH-NH2
T2 peptide: H-GPGPGPGPGPGPHHHHHH-NH2

T3: GP5: H-(GP)5HHHHHH-NH2
T3 peptide: H-GPGPGPGPGPHHHHHH-NH2

T4: GP10: H-(GP)10HHHHHH-NH2 (C-terminal amide)
T4 peptide: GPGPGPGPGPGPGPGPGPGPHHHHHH

T5: monomeric C9orf72 (GA)20 DPR protein peptide preparation (C-terminal amide)
T5 construct: also called monomeric (GA)20
T5 peptide: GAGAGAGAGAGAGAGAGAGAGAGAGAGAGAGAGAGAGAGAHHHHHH

T6: aggregated C9orf72 (GA)20 DPR protein peptide preparation (C-terminal amide)
T6 construct: also called aggregated (GA)20; amyloid-fibril like aggregated (GA)20
T6 peptide: T5 peptide

B1: NI-308.5G2 (antibody, V domains shown)
VH: EVQLVQSGADLRNPGASVTVSCTASGYHFADNAINWLRQAPGQRLEWMGWINIYSGNTKYSQNFQGRVTFTRNTSASTAFMHLRSLRSEDTAVYFCARDPDSSGYYLPYFDYWGQGTLVTVSS
VL: DIQLTQSPDSLTLSLGERATINCKSSQSVFYNSNNKNYLAWYQQKPGQPPKLLMYWASTRESGVTDRFSGSGSGTDFTLTITNLQAEDVAVYYCQQFYSSPLTFGGGTKVEIK
notes: Recombinant complete human IgG1, kappa
B2: NI-308.18F7 (antibody, V domains shown)
VH: QVQLQESGPGLVKPSETLSVTCTVSGGSINDYYWNWIRQPAGKGLEWIGRIYASGTINYNPSLQSRVTMSIDTSKNQFSLDLISVSAADTAVYYCARWGQVVGDYYYGMDVWGQGTTVTVSS
VL: EIVLTQSPLSLSVTPGEPASISCKSSQSLQHTNGYNYLDWYLLKPGQSPQLLIFLTSNRASGVPDRFSGSGSGTNFTLKISRVEAEDVGVYYCMEGIQLWTFGQGTKLEIK
notes: as for B1
B3: NI-308.15O7 (antibody, V domains shown)
VH: QVQLVESGGGVVQPGRSLRLSCAASGFTFSNHAMHWVRQAPGKGLEWVAVISYDGENTYYADSIEGRFTISRDNFKNTLFLQMYSLTADDTAMYFCARGGRRGHFTSYYLDYWGQGTLVTVSS
VL: CDIQMTQSPSSLSASVGDRVTITCRASQNIDKYLNWYQQIPGKAPKLLIYAASSLHSGVPSRFSGSGSGTDFSLTISSLQPEDFAIYYCQQSYSSFRTFGQGTKLEIK
B4: NI-308.46E9 (antibody, V domains shown)
VH: QVQLQESGPGLVKPSETLSLTCTVSGASISGSTYYWGWIRQPPGKGLEYIGRIYYSGSTYYNPSLKSRATISVDTSKNQLSLTLSSVTAADTAVYYCVRPFYAGSGNSPFDYWGQGTLVTVSS
VL: CEIVLTQSPATVSVSPGERATLSCRASQSVSTNLAWYQQKPGQPPRLLIYGASTRATGIPARFSGSGSGAEFTLTISSLQSEDFVVYYCQQYNNWPPAFGGGTKVEIK
notes: as for B1

Experiments:
(GP)15: H-C(GP)15-OH = molecular target: T1, (GP)15: H-C(GP)15-OH; assay: indirect ELISA, coated uncoupled peptide
Procedure: In brief, dipeptide repeat proteins were synthesized and purified by Schafer-N(Copenhagen, Denmark): (GA)₁₅: H-CHHHHHH(GA)₁₅-OH; (GP)₁₅: H-C(GP)₁₅-OH; (GR)₁₅: H-C(GR)₁₅-OH; (PA)₁₅: H-C(PA)₁₅-OH; (PR)₁₅: H—C(PR)₁₅-OH. 96-well microplates (Corning Incorporated, Corning, USA) were coated with dipeptide repeat protein peptides at a concentration of either 5 μg/ml or 20 μg/ml in coating buffer (15 mM Na₂CO₃, 35 mM NaHCO₃, pH 9.42). Non-specific binding sites were blocked for 1 h at room temperature with PBS/0.1% Tween®-20 containing 2% BSA (Sigma-Aldrich, Buchs, Switzerland). Primary antibodies were diluted to the indicated concentrations and incubated for 1 h at room temperature, followed by incubation with a donkey anti-human IgG Fcγ-specific antibody conjugated with HRP (Jackson ImmunoResearch Laboratories, Inc., West Grove, USA). Binding was determined by measurement of HRP activity in a standard colorimetric assay. EC₅₀ values were estimated by non-linear regression using GraphPad Prism software (San Diego, USA). The binding specificity and EC₅₀ of human-derived antibodies for C9orf72 dipeptide repeat protein peptides (GA)₁₅, (GP)₁₅, (GR)₁₅, (PA)₁₅ and (PR)₁₅ were determined by indirect ELISA.

GP6: H-(GP)6HHHHHH-NH2 = molecular target: T2, GP6: H-(GP)6HHHHHH-NH2; assay: indirect ELISA, coated His-tagged peptide; indirect ELISA, peptide coated directly on the plate
Excerpt: (§1) In brief, dipeptide repeat proteins were synthesized and purified by Schafer-N (Copenhagen, Denmark): GA₂₀: H-(GA)₂₀HHHHHH-NH₂; GA₁₀: H-(GA)₁₀HHHHHH-NH₂; GA₆: H-(GA)₆HHHHHH-NH₂; GA₅: H-(GA)₅HHHHHH-NH₂; GA₄: H-(GA)₄HHHHHH-NH₂; GA₃: H-(GA)₃HHHHHH-NH₂; GA₂: H-(GA)₂HHHHHH-NH₂; GP₂₀: H-(GP)₂₀HHHHHH-NH₂; GP₁₀: H-(GP)₁₀HHHHHH-NH₂; GP₆: H-(GP)₆HHHHHH-NH₂; GP₅: H-(GP)₅HHHHHH-NH₂; GP₄: H-(GP)₄HHHHHH-NH₂; GP₃: H-(GP)₃HHHHHH-NH₂; GP₂: H-(GP)₂HHHHHH-NH₂. GR₂₀: H-(GR)₂₀HHHHHH-NH₂; GR₁₀: H-(GR)₁₀HHHHHH-NH₂; GR₆: H-(GR)₆HHHHHH-NH₂; GR₅: H-(GR)₅HHHHHH-NH₂; GR₄: H-(GR)₄HHHHHH-NH₂; GR₃: H-(GR)₃HHHHHH-NH₂; GR₂: H-(GR)₂HHHHHH-NH₂; PA₂₀: H-(PA)₂₀HHHHHH-NH₂; PA₁₀: H-(PA)₁₀HHHHHH-NH₂; PA₆: H-(PA)₆HHHHHH-NH₂; PA₅: H-(PA)₅HHHHHH-NH₂; PA₄: H-(PA)₄HHHHHH-NH₂; PA₃: H-(PA)₃HHHHHH-NH₂; PA₂: H-(PA)₂HHHHHH-NH₂; PR₂₀: H-(PR)₂₀HHHHHH-NH₂; PR₁₀: H-(PR)₁₀HHHHHH-NH₂; PR₆: H-(PR)₆HHHHHH-NH₂; PR₅: H-(PR)₅HHHHHH-NH₂; PR₄: H-(PR)₄HHHHHH-NH₂; PR₃: H-(PR)₃HHHHHH-NH₂; PR₂: H-(PR)₂HHHHHH-NH₂. 96-well microplates (Corning Incorporated, Corning, USA) were coated with dipeptide repeat protein peptides at a concentration of 50 μg/ml in coating buffer (15 mM Na₂CO₃, 35 mM NaHCO₃, pH 9.42). Non-specific binding sites were blocked for 1 h at room temperature with PBS/0.1% Tween®-20 containing 2% BSA (Sigma-Aldrich, Buchs, Switzerland). Primary antibodies were diluted to the indicated concentrations and incubated 1 h at room temperature, followed by incubation with a donkey anti-human IgG Fcγ-specific antibody conjugated with HRP (Jackson ImmunoResearch Laboratories, Inc., West Grove, USA). Binding was determined by measurement of HRP activity in a standard colorimetric assay. EC₅₀ values were estimated by non-linear regression using GraphPad Prism software (San Diego, USA).

GP5: H-(GP)5HHHHHH-NH2 = molecular target: T3, GP5: H-(GP)5HHHHHH-NH2; assay: as above
Excerpt: as §1

GP10: H-(GP)10HHHHHH-NH2 = molecular target: T4, GP10: H-(GP)10HHHHHH-NH2; assay: as above
Excerpt: as §1

[1] = molecular target: T5, monomeric C9orf72 (GA)20 DPR protein …; assay: indirect ELISA, coated preparation 5 ug/ml
Procedure: (§2) 96-well microplates (Corning Incorporated, Corning, USA) were coated with monomeric and aggregated (GA)₂₀ DPR protein peptide preparations at a concentration of 5 μg/ml in coating buffer (15 mM Na₂CO₃, 35 mM NaHCO₃, pH 9.42). Non-specific binding sites were blocked for 1 h at room temperature with PBS/0.1% Tween®-20 containing 2% BSA (Sigma-Aldrich, Buchs, Switzerland). Primary antibodies were diluted to the indicated concentrations and incubated 1 h at room temperature, followed by incubation with a donkey anti-human IgG Fcγ-specific antibody conjugated with HRP (Jackson ImmunoResearch Laboratories, Inc., West Grove, USA). Binding was determined by measurement of HRP activity in a standard colorimetric assay. EC₅₀ values were estimated by non-linear regression using GraphPad Prism software (San Diego, USA).

[2] = molecular target: T6, aggregated C9orf72 (GA)20 DPR protein …; assay: indirect ELISA, coated preparation 5 ug/ml
Procedure: as §2

| Binder | EC50 ((GP)15: H-C(GP)15-OH) [nM] | EC50 (GP6: H-(GP)6HHHHHH-NH2) [nM] | EC50 (GP5: H-(GP)5HHHHHH-NH2) [nM] | EC50 (GP10: H-(GP)10HHHHHH-NH2) [nM] | EC50 [1] [nM] | EC50 [2] [nM] |
| --- | --- | --- | --- | --- | --- | --- |
| B1 | 0.88 | 26.8 | > 200 | 0.94 |  |  |
| B2 |  |  |  |  | 0.87 | 0.89 |
| B3 |  |  |  |  | 0.53 | 0.78 |
| B4 | 13.9 |  |  |  |  |  |
